Experiments:
[1] = tested on: B35SSB (Bacillus phage Bam35 (betatectivirus)); test: EMSA; conditions: EMSA: 50 mM Tris-HCl pH 7.5, 50 mM NaCl, 1 mM DTT, 4% glycerol, 0.1 mg/ml BSA, 0.05% Tween 20, 1 mM EDTA, 10 min at 4 C, 2 nM labeled probe
EcoSSB = EcoSSB (Escherichia coli, UniProt P0AGE0 1-178); test: EMSA; 1 uM protein; EMSA: 50 mM Tris-HCl pH 7.5, 50 mM NaCl, 1 mM DTT, 4% glycerol, 0.1 mg/ml BSA, 0.05% Tween 20, 1 mM EDTA, 10 min at 4 C; 2 nM labeled probe; conditions: chain copies: 4; label: 5' 32P
[2] = target: T1, Φ29 terminal protein (Φ29TP) (Bacillus phage Φ29, UniProt P03681 1-266); test: EMSA; 20 nM protein; EMSA: 50 mM Tris-HCl pH 7.5, 50 mM NaCl, 1 mM DTT, 4% glycerol, 0.1 mg/ml BSA, 0.05% Tween 20, 1 mM EDTA, 10 min at 4 C; 2 nM labeled probe; conditions: label: 5' 32P on strand 1; blunt
T1 sequence: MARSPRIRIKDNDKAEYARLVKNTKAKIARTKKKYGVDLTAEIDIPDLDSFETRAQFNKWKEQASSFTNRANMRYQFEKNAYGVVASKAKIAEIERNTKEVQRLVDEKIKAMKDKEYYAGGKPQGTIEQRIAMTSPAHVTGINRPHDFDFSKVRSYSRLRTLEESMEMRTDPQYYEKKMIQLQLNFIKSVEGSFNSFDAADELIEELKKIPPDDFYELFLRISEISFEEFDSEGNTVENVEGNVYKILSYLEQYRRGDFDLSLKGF

Sequence of EcoSSB (P0AGE0 whole entry): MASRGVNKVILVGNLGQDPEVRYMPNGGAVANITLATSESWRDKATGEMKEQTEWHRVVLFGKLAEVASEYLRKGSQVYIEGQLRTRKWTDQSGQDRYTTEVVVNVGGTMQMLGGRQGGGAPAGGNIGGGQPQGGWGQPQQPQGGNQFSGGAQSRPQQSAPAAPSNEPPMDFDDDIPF

Molecule: ACTGGCCGTCGTTCTATTGTACTCACTGTGATC [33-mer]
- binding signal ([1]; 500 nM protein (25% bound at 250 nM)): 50 % bound

Molecule: GAAAAUAAAAAUAAACUGGACAAUUAAGGAUCCUGUACAAGUCGACGCGG [RNA-50mer]
- binding signal ([1]; 5 uM protein): 10 % bound

Molecule: GATCACAGTGAGTAC [15-mer]
- binding signal ([1]; 1 uM protein, minor smear): < 10 % bound

Molecule: GGCCCATATGTACCCATACGACGTCCCAGACTACGCTGGGACGGGGAGCGGGGCCAGTAAACTACTGACTGCGCAAGAGG [80-mer]
- binding signal ([1]; 250 nM protein): 70 % bound

B1: 50-mer (ssDNA)
DNA: GAAAATAAAAATAAACTGGACAATTAAGGATCCTGTACAAGTCGACGCGG
- binding result (EcoSSB): binds

B2: RNA-50mer (ssRNA)
RNA: GAAAAUAAAAAUAAACUGGACAAUUAAGGAUCCUGUACAAGUCGACGCGG
- binding result (EcoSSB): binds

B3: 50-mer dsDNA (dsDNA)
DNA 1: GAAAATAAAAATAAACTGGACAATTAAGGATCCTGTACAAGTCGACGCGG
DNA 2: CCGCGTCGACTTGTACAGGATCCTTAATTGTCCAGTTTATTTTTATTTTC
- binding result [2]: binds

Source: PMC8276246, “Unlimited Cooperativity of Betatectivirus SSB, a Novel DNA Binding Protein Related to an Atypical Group of SSBs From Protein-Primed Replicating Bacterial Viruses”
